Results taken from patent US20260355338 (published 2026).

T1: EpCAM on HSC2 cells (human, UniProt P16422)
T1 chain: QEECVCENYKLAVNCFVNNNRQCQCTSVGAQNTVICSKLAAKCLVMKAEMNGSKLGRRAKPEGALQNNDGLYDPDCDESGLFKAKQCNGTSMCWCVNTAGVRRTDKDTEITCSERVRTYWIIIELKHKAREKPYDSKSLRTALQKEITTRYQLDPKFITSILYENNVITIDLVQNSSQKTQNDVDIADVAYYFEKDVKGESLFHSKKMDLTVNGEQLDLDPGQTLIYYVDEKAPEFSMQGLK

T2: human EpCAM-mFc (human)
T2 chain: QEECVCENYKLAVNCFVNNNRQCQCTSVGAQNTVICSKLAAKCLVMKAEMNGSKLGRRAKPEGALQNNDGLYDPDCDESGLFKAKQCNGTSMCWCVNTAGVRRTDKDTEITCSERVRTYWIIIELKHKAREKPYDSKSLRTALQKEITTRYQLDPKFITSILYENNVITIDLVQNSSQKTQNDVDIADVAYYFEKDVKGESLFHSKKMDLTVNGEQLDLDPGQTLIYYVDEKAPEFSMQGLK


How the values were obtained:
[1] = target: T1, EpCAM on HSC2 cells; test: FACS, HSC2 cells, apparent, high end of range
[2] = target: T1, EpCAM on HSC2 cells; test: FACS, HSC2 cells, apparent, low end of range
[3] = target: T2, human EpCAM-mFc; test: ELISA

Kd [1] [nM] | Kd [2] [nM] | Kd [3] [nM] | Binder
0.79 | 0.38 |  | muEpCAM23 (antibody, V domains shown) VH: EVKLEESGPALVKPGASVRISCKASGYTFTNYYIHWVKQRPGQGLDYIGWIYPGNVYIQYNEKFKGKATLTADKSSSTAFMQLSSLTSEDSAVYFCARDGPWFAYWGQGTLVTVSS VL: DIVLTQTPFSNPVTLGTSASISCRSSKSLLHSDGFTYLYWFLQKPGQSPHLLIYQTSNLASGVPDRFSSSGSGTDFTLRISRVEAEDVGVYYCAQNLELPNTFGGGTKLEIK
 |  | 1.9 | EP04-3014 (1361-H) (antibody) chain 1: QVQLVQSGAEVKKPGASVKVSCKASGYTFTNYHIHWVRQAPGQRLEYIGWIYPGNVYIQYNEKFKGRATLTADKSASTAYMELSSLRSEDTAVYYCARDGPWFAYWGQGTLVTVSS chain 2: QGQSGQGWCPRLFDRPSMGCPTGGGSSGGAVGLLAPPGGLSGRSDNIGGSDIVLTQTPLSLSVTPGQPASISCRSSRSLLHSDGFTYLYWFLQKPGQSPQLLIYQTSNLASGVPDRFSSSGSGTDFTLKISRVEAEDVGVYYCAQNLELPNTFGQGTKLEIK
 |  | 147 | EP107-3014 (1361-H) (antibody) chain 1: QVQLVQSGAEVKKPGASVKVSCKASGYTFTNYHIHWVRQAPGQRLEYIGWIYPGNVYIQYNEKFKGRATLTADKSASTAYMELSSLRSEDTAVYYCARDGPWFAYWGQGTLVTVSS chain 2: QGQSGQGSKPCSYMHPYCFYNSGGGSSGGAVGLLAPPGGLSGRSDNIGGSDIVLTQTPLSLSVTPGQPASISCRSSRSLLHSDGFTYLYWFLQKPGQSPQLLIYQTSNLASGVPDRFSSSGSGTDFTLKISRVEAEDVGVYYCAQNLELPNTFGQGTKLEIK
 |  | 37.6 | EP07-3014 (1565-Y) (antibody) chain 1: QVQLVQSGAEVKKPGASVKVSCKASGYTFTNYYIHWVRQAPGQRLEYIGWIYPGNVYIQYNEKFKGRATLTADKSASTAYMELSSLRSEDTAVYYCARDGYWFAYWGQGTLVTVSS chain 2: QGQSGQGHSGCPRLFDRCSAPAGGGSSGGAVGLLAPPGGLSGRSDNIGGSDIVLTQTPLSLSVTPGQPASISCRSSRSLLHSDGFTYLYWFLQKPGQSPQLLIYQTSNLASGVPDRFSSSGSGTDFTLKISRVEAEDVGVYYCAQNLELPNTFGQGTKLEIK
